B1: Keratin, type I cuticular Ha8 (Homo sapiens), O76015 (parent)
chain: MTSSYSSSSCPLGCTMAPGARNVSVSPIDIGCQPGAEANIAPMCLLANVAHANRVRVGSTPLGRPSLCLPPTCHTACPLPGTCHIPGNIGICGAYGENTLNGHEKETMQFLNDRLANYLEKVRQLEQENAELEATLLERSKCHESTVCPDYQSYFHTIEELQQKILCSKAENARLIVQIDNAKLAADDFRIKLESERSLRQLVEADKCGTQKLLDDATLAKADLEAQQESLKEEQLSLKSNHEQEVKILRSQLGEKLRIELDIEPTIDLNRVLGEMRAQYEAMLETNRQDVEQWFQAQSEGISLQDMSCSEELQCCQSEILELRCTVNALEVERQAQHTLKDCLQNSLCEAEDRFGTELAQMQSLISNVEEQLSEIRADLERQNQEYQVLLDVKTRLENEIATYRNLLESEDCKLPCNPCSTSPSCVTAPCAPRPSCGPCTTCGPTCGASTTGSRF
partner: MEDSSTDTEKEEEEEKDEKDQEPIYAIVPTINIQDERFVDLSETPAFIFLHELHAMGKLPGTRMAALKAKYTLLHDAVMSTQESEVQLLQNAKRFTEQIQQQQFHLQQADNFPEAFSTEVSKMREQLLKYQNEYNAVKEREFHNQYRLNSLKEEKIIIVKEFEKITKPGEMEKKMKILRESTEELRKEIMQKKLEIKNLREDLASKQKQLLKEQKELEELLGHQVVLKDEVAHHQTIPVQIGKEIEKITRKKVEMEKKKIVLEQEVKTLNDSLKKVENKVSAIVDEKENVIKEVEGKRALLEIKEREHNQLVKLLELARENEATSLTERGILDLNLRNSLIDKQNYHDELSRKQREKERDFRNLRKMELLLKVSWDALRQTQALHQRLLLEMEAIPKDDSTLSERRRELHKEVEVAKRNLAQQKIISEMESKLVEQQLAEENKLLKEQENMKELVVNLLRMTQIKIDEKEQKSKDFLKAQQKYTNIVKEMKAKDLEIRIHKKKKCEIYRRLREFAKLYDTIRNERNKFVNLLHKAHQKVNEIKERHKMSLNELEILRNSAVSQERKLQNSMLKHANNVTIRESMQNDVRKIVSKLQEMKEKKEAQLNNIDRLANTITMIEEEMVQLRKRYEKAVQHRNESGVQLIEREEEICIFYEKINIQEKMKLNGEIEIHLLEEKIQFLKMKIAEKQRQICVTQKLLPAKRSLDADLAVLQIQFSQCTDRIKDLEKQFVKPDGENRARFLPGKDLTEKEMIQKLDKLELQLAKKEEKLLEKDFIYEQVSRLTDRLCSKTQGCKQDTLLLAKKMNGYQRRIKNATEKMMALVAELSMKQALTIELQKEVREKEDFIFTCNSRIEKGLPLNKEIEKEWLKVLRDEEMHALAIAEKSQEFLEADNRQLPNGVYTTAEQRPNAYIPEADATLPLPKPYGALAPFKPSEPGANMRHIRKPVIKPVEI
B2: Kinetochore protein NDC80 homolog (Homo sapiens), O14777 (parent)
chain: MKRSSVSSGGAGRLSMQELRSQDVNKQGLYTPQTKEKPTFGKLSINKPTSERKVSLFGKRTSGHGSRNSQLGIFSSSEKIKDPRPLNDKAFIQQCIRQLCEFLTENGYAHNVSMKSLQAPSVKDFLKIFTFLYGFLCPSYELPDTKFEEEVPRIFKDLGYPFALSKSSMYTVGAPHTWPHIVAALVWLIDCIKIHTAMKESSPLFDDGQPWGEETEDGIMHNKLFLDYTIKCYESFMSGADSFDEMNAELQSKLKDLFNVDAFKLESLEAKNRALNEQIARLEQEREKEPNRLESLRKLKASLQGDVQKYQAYMSNLESHSAILDQKLNGLNEEIARVELECETIKQENTRLQNIIDNQKYSVADIERINHERNELQQTINKLTKDLEAEQQKLWNEELKYARGKEAIETQLAEYHKLARKLKLIPKGAENSKGYDFEIKFNPEAGANCLVKYRAQVYVPLKELLNETEEEINKALNKKMGLEDTLEQLNAMITESKRSVRTLKEEVQKLDDLYQQKIKEAEEEDEKCASELESLEKHKHLLESTVNQGLSEAMNELDAVQREYQLVVQTTTEERRKVGNNLQRLLEMVATHVGSVEKHLEEQIAKVDREYEECMSEDLSENIKEIRDKYEKKATLIKSSEE
B3: CLK4-associating serine/arginine rich protein (Homo sapiens), Q8N2M8 (parent)
chain: MWHEARKHERKLRGMMVDYKKRAERRREYYEKIKKDPAQFLQVHGRACKVHLDSAVALAAESPVNMMPWQGDTNNMIDRFDVRAHLDHIPDYTPPLLTTISPEQESDERKCNYERYRGLVQNDFAGISEEQCLYQIYIDELYGGLQRPSEDEKKKLAEKKASIGYTYEDSTVAEVEKAAEKPEEEESAAEEESNSDEDEVIPDIDVEVDVDELNQEQVADLNKQATTYGMADGDFVRMLRKDKEEAEAIKHAKALEEEKAMYSGRRSRRQRREFREKRLRGRKISPPSYARRDSPTYDPYKRSPSESSSESRSRSRSPTPGREEKITFITSFGGSDEEAAAAAAAAAASGVTTGKPPAPPQPGGPAPGRNASARRRSSSSSSSSSASRTSSSRSSSRSSSRSRRGGGYYRSGRHARSRSRSWSRSRSRSRRYSRSRSRGRRHSGGGSRDGHRYSRSPARRGGYGPRRRSRSRSHSGDRYRRGGRGLRHHSSSRSRSSWSLSPSRSRSLTRSRSHSPSPSQSRSRSRSRSQSPSPSPAREKLTRPAASPAVGEKLKKTEPAAGKETGAAKPKLTPQEKLKLRMQKALNRQFKADKKAAQEKMIQQEHERQEREDELRAMARKIRMKERERREKEREEWERQYSRQSRSPSPRYSREYSSSRRRSRSRSRSPHYRH
partner: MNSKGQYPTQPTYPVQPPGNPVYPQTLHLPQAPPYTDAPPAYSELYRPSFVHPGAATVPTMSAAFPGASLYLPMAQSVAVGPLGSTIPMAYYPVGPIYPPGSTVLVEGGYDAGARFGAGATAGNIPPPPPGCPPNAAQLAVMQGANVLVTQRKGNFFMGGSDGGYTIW
B4: Zinc finger protein 64 (Homo sapiens), Q9NTW7 (parent)
chain: MNASSEGESFAGSVQIPGGTTVLVELTPDIHICGICKQQFNNLDAFVAHKQSGCQLTGTSAAAPSTVQFVSEETVPATQTQTTTRTITSETQTITVSAPEFVFEHGYQTYLPTESNENQTATVISLPAKSRTKKPTTPPAQKRLNCCYPGCQFKTAYGMKDMERHLKIHTGDKPHKCEVCGKCFSRKDKLKTHMRCHTGVKPYKCKTCDYAAADSSSLNKHLRIHSDERPFKCQICPYASRNSSQLTVHLRSHTASELDDDVPKANCLSTESTDTPKAPVITLPSEAREQMATLGERTFNCCYPGCHFKTVHGMKDLDRHLRIHTGDKPHKCEFCDKCFSRKDNLTMHMRCHTSVKPHKCHLCDYAAVDSSSLKKHLRIHSDERPYKCQLCPYASRNSSQLTVHLRSHTGDTPFQCWLCSAKFKISSDLKRHMIVHSGEKPFKCEFCDVRCTMKANLKSHIRIKHTFKCLHCAFQGRDRADLLEHSRLHQADHPEKCPECSYSCSSAAALRVHSRVHCKDRPFKCDFCSFDTKRPSSLAKHVDKVHRDEAKTENRAPLGKEGLREGSSQHVAKIVTQRAFRCETCGASFVRDDSLRCHKKQHSDQSENKNSDLVTFPPESGASGQLSTLVSVGQLEAPLEPSQDL
partner: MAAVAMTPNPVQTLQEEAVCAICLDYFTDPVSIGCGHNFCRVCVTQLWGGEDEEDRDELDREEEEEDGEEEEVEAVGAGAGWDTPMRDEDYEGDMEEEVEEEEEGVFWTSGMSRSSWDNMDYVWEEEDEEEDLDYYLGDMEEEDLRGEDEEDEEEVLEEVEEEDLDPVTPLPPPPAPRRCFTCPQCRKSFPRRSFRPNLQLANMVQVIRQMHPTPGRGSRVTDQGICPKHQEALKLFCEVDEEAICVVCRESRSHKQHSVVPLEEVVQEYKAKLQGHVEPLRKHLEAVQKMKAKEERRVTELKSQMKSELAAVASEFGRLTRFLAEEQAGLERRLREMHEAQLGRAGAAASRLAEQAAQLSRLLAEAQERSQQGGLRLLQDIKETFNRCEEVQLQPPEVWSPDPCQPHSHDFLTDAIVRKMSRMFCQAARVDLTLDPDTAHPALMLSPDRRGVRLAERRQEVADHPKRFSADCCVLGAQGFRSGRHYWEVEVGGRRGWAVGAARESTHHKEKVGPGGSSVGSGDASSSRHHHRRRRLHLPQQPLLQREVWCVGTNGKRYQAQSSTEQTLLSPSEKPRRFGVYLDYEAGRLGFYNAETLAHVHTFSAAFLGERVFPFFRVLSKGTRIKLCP

Variants of: B1
Details: with cc146_human CCDC146, Q8IYE0

| Variant | effect of a mutation on the interaction |
| --- | --- |
| D306A | with no effect |

Variants of: B1
Details: with cc146_human CCDC146, Q8IYE0
Remark: another data set of the same source

| Variant | effect of a mutation on the interaction |
| --- | --- |
| N270K | with no effect |

Variants of: B2
Details: with tnip1_human TNIP1, Q15025
Chain of tnip1_human TNIP1, Q15025 (Q15025 whole entry): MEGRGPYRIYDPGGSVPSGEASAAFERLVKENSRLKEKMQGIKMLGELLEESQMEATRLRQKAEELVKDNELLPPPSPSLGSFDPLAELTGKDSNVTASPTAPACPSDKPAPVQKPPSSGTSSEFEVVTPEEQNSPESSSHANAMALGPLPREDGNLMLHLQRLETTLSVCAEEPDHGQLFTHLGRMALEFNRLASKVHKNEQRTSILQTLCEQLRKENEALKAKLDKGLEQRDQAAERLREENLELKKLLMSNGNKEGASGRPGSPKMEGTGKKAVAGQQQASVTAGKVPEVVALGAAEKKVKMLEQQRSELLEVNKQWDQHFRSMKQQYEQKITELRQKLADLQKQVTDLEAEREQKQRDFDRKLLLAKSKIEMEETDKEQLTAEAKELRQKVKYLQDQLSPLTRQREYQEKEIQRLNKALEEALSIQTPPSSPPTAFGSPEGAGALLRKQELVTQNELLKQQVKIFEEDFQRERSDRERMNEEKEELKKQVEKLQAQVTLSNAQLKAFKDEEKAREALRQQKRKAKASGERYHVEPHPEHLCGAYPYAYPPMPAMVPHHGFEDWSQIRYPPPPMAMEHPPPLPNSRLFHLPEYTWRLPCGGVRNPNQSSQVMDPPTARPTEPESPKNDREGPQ

| Variant | effect of a mutation on the interaction |
| --- | --- |
| K288E | with no effect |

Variants of: B2
Details: with amol2_human AMOTL2, Q9Y2J4
Chain of amol2_human AMOTL2, Q9Y2J4 (Q9Y2J4 whole entry): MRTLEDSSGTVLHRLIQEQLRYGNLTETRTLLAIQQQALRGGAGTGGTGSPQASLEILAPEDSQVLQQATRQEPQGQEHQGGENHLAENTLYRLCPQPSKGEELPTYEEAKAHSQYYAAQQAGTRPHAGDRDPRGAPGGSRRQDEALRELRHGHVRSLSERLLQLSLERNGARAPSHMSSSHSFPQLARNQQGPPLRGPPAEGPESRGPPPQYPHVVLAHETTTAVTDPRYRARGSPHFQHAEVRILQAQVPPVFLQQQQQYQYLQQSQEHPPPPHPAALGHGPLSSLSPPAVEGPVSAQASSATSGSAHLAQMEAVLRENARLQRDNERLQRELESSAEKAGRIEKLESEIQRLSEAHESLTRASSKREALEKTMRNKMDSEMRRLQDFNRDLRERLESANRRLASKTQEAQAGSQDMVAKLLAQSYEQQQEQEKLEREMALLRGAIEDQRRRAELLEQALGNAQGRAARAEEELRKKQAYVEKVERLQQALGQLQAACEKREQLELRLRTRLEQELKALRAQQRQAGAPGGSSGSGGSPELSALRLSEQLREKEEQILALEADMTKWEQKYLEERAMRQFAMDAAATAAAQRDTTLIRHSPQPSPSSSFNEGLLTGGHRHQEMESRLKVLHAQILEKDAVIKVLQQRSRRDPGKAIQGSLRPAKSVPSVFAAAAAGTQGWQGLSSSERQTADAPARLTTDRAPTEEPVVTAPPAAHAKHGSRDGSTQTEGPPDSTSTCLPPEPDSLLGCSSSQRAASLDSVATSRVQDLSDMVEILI

| Variant | effect of a mutation on the interaction |
| --- | --- |
| K288E | with no effect |

Variants of: B2
Details: with atf4_human ATF4, P18848
Chain of atf4_human ATF4, P18848 (P18848 whole entry): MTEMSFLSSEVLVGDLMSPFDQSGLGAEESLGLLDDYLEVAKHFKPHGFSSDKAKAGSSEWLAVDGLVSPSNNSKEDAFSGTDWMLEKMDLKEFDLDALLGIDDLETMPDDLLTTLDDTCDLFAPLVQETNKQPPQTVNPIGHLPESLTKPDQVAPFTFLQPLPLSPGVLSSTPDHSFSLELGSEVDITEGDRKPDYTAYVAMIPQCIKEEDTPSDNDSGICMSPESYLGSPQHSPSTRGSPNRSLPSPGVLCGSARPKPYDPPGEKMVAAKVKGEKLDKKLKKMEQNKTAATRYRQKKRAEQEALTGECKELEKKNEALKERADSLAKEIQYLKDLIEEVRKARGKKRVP

| Variant | effect of a mutation on the interaction |
| --- | --- |
| K288E | with no effect |

Variants of: B2
Details: with txlna_human TXLNA

| Variant | effect of a mutation on the interaction |
| --- | --- |
| K288E | with no effect |

Variants of: B3
Details: with dazp2_human DAZAP2, Q15038

| Variant | effect of a mutation on the interaction |
| --- | --- |
| I163V | with no effect |

Variants of: B4
Details: with tri41_human TRIM41, Q8WV44

| Variant | effect of a mutation on the interaction |
| --- | --- |
| D227E | with no effect |
